Three molecules from patent US20220332835A1 (SHANGHAITECH UNIVERSITY, published 2022) can be followed below.

For experiment [1], the target named is pepN48 (peptide of the 48 N-terminal extracellular amino acids of human CXCR2) (human). Description: SPR, Biacore.
In experiment [2] the target is hCXCR2-mCherry (human CXCR2 fused with mCherry, on U2OS cells) (human) (UniProt P25025). Description: flow cytometry, U2OS cells with hCXCR2-mCherry (ECD-A axis), antibody staining on the FITC-A axis; other quadrants UL 1.80%, LL 33.80%, LR 18.24%.
Experiment [3] deals with T1, human CXCR2 (hCXCR2) on cells (human, UniProt P25025 1-360).
T1 sequence (looked up): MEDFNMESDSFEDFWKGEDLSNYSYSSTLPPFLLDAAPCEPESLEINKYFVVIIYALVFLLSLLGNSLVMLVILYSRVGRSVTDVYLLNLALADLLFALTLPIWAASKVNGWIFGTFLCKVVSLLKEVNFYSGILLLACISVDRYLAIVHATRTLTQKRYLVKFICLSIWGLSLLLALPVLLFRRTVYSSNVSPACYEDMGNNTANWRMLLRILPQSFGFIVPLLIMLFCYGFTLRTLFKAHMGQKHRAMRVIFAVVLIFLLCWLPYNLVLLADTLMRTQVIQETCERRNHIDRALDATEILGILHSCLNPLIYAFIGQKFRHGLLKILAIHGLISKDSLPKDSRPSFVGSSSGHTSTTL
Description: cell-based or functional assay.

The target of experiment [4] is T2, rCXCR2-mCherry (rat, UniProt P35407 1-359).
T2 construct: whole, on cells; Overexpressed in U2OS cells; also called CXCR2 of rat; not shown: mCherry fluorescent tag
T2 sequence (looked up): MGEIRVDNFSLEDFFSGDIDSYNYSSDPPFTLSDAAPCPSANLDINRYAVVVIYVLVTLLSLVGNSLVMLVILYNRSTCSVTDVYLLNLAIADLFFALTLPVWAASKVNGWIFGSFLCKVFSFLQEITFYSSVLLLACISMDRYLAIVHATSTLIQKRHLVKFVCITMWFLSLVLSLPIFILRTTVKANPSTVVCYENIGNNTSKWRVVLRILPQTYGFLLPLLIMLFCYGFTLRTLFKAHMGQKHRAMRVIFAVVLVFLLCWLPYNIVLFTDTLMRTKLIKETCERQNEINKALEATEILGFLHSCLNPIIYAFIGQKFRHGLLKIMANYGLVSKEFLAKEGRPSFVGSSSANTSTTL
Description: FACS on transfected U2OS cells.

Experiment [5] concerns the target T3, rbCXCR2-mCherry (rabbit, UniProt P35344 1-358).
T3 construct: whole, on cells; Overexpressed in U2OS cells; also called rabbitCXCR2; CXCR2 of rabbit; not shown: mCherry fluorescent tag
T3 sequence (looked up): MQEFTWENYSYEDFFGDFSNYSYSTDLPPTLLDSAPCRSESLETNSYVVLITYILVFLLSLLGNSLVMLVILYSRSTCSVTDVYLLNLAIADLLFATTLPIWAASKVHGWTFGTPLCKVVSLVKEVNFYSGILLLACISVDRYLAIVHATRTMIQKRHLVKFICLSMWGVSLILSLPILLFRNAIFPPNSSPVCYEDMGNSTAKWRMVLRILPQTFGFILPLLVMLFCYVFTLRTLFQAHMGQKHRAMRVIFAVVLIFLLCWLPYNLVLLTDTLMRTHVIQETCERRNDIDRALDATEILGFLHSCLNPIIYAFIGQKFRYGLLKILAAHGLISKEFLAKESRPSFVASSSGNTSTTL
Description: FACS on transfected U2OS cells.

For experiment [6], the target named is T4, pepN48 (peptide of the 48 N-terminal extracellular amino acids of human CXCR2) (human, biotin labeled on its N-terminus (panning, ELISA, SPR)).
T4 construct: Synthetic; also called N-terminus of CXCR2
T4 peptide: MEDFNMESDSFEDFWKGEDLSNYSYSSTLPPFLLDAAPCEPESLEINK
Description: SPR, Biacore T200; biotinylated pepN48 on SA chip.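 Also: antibodies flowed in HBS-EP+ running buffer over the immobilized antigen at 0.5 to 10 nM, kinetic traces fitted to a protein-protein interaction model to derive constants.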

Experiment [7] addresses T5, hCXCR1-mCherry (human, UniProt P25024 1-350).
T5 construct: whole, on cells; Overexpressed in U2OS cells; not shown: mCherry fluorescent tag
T5 sequence (looked up): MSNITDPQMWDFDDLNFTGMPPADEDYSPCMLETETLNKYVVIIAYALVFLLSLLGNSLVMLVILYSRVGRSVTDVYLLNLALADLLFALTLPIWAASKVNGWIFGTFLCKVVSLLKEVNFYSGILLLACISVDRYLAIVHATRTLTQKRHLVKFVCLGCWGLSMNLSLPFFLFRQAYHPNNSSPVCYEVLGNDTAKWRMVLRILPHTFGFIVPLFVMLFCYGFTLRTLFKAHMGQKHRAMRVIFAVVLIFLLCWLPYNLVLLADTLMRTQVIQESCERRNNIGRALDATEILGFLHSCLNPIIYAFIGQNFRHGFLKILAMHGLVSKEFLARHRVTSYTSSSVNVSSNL
Description: FACS on transfected U2OS cells (also immunofluorescence).

The target of experiment [8] is T6, mCXCR2-mCherry (mouse, UniProt P35343 1-359).
T6 construct: whole, on cells; Overexpressed in U2OS cells; also called CXCR2 of mouse; not shown: mCherry fluorescent tag
T6 sequence (looked up): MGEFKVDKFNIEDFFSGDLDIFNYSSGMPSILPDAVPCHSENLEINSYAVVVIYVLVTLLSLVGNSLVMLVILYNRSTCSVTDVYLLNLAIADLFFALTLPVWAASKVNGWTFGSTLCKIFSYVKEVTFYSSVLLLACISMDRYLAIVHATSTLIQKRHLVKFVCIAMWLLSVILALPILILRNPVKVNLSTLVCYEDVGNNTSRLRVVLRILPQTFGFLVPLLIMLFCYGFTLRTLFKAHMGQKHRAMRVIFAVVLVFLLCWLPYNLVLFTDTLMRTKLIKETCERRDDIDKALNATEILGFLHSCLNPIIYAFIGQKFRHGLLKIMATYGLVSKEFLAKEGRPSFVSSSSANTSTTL
The description is as above.

Experiment [9] deals with T4, pepN48 (peptide of the 48 N-terminal …). Description: SPR.

B1: H8 (abN48) scFv combinatorial antibody (scFv, part only; not given: linker, domain order, IgG1 Fc, V domains shown, not shown: another chain or arm of the molecule; a dimerising Fc or GST; small tags and cut ends)
VH: QVQLVQSGAEVKKPGSSVKVSCKASGGTLSSYAISWVRQAPGQGPEWMGWINPNSGGTNYAQKFQGRVTMTRDTSISTAYMELSRLRPDDTAVYYCASGYCSSTSCYDYWGQGTLVTVSS
VL: QAVLTQPSSLSASPGASVSLTCTLRSGINVGAYRIYWYQQKPGSPPQFLLRYKSDSDKQQGSGVPSRFSGSRDASANAGILLISGLRSEDEADYYCAIWHSSAWVFGGGTQLTVL
B1: the Kd in experiment [1] is 2.6 nM. In experiment [2], this molecule returned a percent of cells in quadrant Q1-UR (FITC-A high and ECD-A high) of 46.2%.

B2: abN48-IgG1 (antibody, V domains shown)
VH: QVQLVQSGAEVKKPGSSVKVSCKASGGTLSSYAISWVRQAPGQGPEWMGWINPNSGGTNYAQKFQGRVTMTRDTSISTAYMELSRLRPDDTAVYYCASGYCSSTSCYDYWGQGTLVTVSS
VL: QAVLTQPSSLSASPGASVSLTCTLRSGINVGAYRIYWYQQKPGSPPQFLLRYKSDSDKQQGSGVPSRFSGSRDASANAGILLISGLRSEDEADYYCAIWHSSAWVFGGGTQLTVLG
notes: also called full-length abN48
For the molecule B2, in experiment [3], the “inhibition of GROα-induced (EC80) β-arrestin recruitment, Tango assay, apparent IC50” value was determined as 4.7 nM; the “inhibition of GROα-induced (EC90) Ca2+ influx, FLIPR, IC50” value is 1000 nM; the “inhibition of IL8-induced (EC80) β-arrestin recruitment, Tango assay, apparent IC50” value amounted to 2.8 nM; the “inhibition of IL8-induced (EC90) Ca2+ influx, FLIPR, IC50” value is 190 nM. Also, in [4], the binding result is on record as “no binding (tested: 2 µg/mL)”. Besides, the binding result in experiment [5] is reported as “no binding (tested: 2 µg/mL)”. Further, in [6], the Kd turned out to be 0.78 nM, the koff amounted to 0.00035 s⁻¹ and the kon was found to be 350000 M⁻¹ s⁻¹. For the same molecule, the binding result in [7] is “no binding (tested: 2 µg/mL)”. Further, the binding result in experiment [8] is recorded as “no binding (tested: 2 µg/mL)”.

B3: abN48-2-IgG1 (antibody, V domains shown)
VH: QVQLVQSGAEVKKPGSSVKVSCKASGGTLSSYAISWVRQAPGQGPEWMGWINPNSGGTNYAQKFQGRVTMTRDTSISTAYMELSRLRPDDTAVYYCASGYCSRTRCYDYWGQGTLVTVSS
VL: QAVLTQPSSLSASPGASVSLTCTLRSGINVGAYRIYWYQQKPGSPPQFLLRYKSDSDKQQGSGVPSRFSGSRDASANAGILLISGLRSEDEADYYCAIWHSSAWVFGGGTQLTVLG
notes: Full-length human IgG1, lambda light chain; also called ab48-2-IgG1; abN48-2-IgG2 (as misprinted)
Regarding B3, the “fold improvement of KD against abN48-IgG1” value in experiment [9] was found to be 100 fold. In experiment [3], the “inhibition of GROα-induced (EC80) β-arrestin recruitment, Tango assay, apparent IC50” value turned out to be 0.37 nM; the “inhibition of GROα-induced (EC90) Ca2+ influx, FLIPR, IC50” value worked out at 110 nM; the “inhibition of IL8-induced (EC80) β-arrestin recruitment, Tango assay, apparent IC50” value is 0.9 nM; the “inhibition of IL8-induced (EC90) Ca2+ influx, FLIPR, IC50” value stood at 44 nM. Besides, the “partial agonist effect on Ca2+ influx, FLIPR, apparent EC50” value in experiment [3] was 310 nM. Also, the binding result in experiment [4] is listed as “no binding (tested: 2 µg/mL)”. In addition, the binding result in [5] is on record as “no binding (tested: 2 µg/mL)”. Also, the dissociation constant (Kd) in experiment [6] amounted to 0.0072 nM. Moreover, the binding result in experiment [7] is reported as “no binding (tested: 2 µg/mL)”. Besides, the binding result in experiment [8] is listed as “no binding (tested: 2 µg/mL)”.
